Settings in all cases: co-substrate SAM (100 µM in activity assay), 20 mM Tris-HCl pH 7.5, 37 °C, substrate 0.5-100 µM
Substrate in the data set “purified protein”: O=c1cc(-c2ccc(O)cc2)oc2cc(O)cc(O)c12
In words: purified protein.

Substrate in data set [1]: O=C1C[C@@H](c2ccc(O)c(O)c2)Oc2cc(O)cc(O)c21
Description: HPLC assay of 7-O-methylation. Type of data set: biochemical, Perilla frutescens.

Substrate in data set [2]: O=c1c(O)c(-c2ccc(O)cc2)oc2cc(O)cc(O)c12
Description: HPLC assay of 7-O-methylation. It counts as biochemical, Perilla frutescens.

Substrate in data set [3]: O=c1cc(-c2ccccc2)oc2cc(O)cc(O)c12
Description: HPLC assay of 7-O-methylation. It counts as biochemical, Perilla frutescens.

Substrate in data set [4]: O=C1C[C@@H](c2ccc(O)cc2)Oc2cc(O)cc(O)c21
In words: HPLC assay of 7-O-methylation. It counts as biochemical, Perilla frutescens.

Substrate in data set [5]: O=c1cc(-c2ccc(O)c(O)c2)oc2cc(O)cc(O)c12
In words: HPLC assay of 7-O-methylation. Type of data set: biochemical, Perilla frutescens.

B1: PfOMT3 (Perilla frutescens) (protein)
chain: MKNSSTDEDLSIFAMQVATSSIVPRALKAVIELDLLEMMKKAGRPLSTSEMAAQIQATNPEAALMIDRILRVLIASNILECTTAASHGGAERLYSLAPVCKFFTKNDDGVSWAPLFLMIQDRVFTEAWDHVKDAIVEGGIPFNIAHGMSGFEYPATDPRYNKIFNQAMSDESTMFMHKILELYDGFDGLKSVVDVGGGIGASLKMIITKYPSIQAINFDLPHVIQNAPSHPGLEHRSGDMFVSVPTGDAILLKWIIHNWSDGHCLKLLKNCYEALPEKGKVIIADRILPETENYKEASASVDLAGDALMLTLFTGGKERAEAEFQALAKASGFKHFRKVCCAFSTWIMELYK
notes: primers encode MKNSSTD at start and IMELYK at end
As for B1, the Km in the data set “purified protein” stood at 3.72 ± 0.05 µM; in data set [1], 13.08 ± 1.42 µM; in data set [2], 17.88 ± 0.49 µM; in data set [3], 1.31 ± 0.25 µM; in data set [4], 13.40 ± 1.29 µM; in data set [5] it was 34.21 ± 4.65 µM. In addition, the maximal velocity (Vmax) was 0.0133 µmol/min/mg in “purified protein”; 0.00784 µmol/min/mg in data set [1]; 0.00581 µmol/min/mg in data set [2]; 0.00205 µmol/min/mg in data set [3]; 0.0517 µmol/min/mg in data set [4]; 0.00418 µmol/min/mg in data set [5]. For the same protein, the catalytic constant (kcat) stood at 0.0091 s⁻¹ in “purified protein”; 0.00535 s⁻¹ in data set [1]; 0.00397 s⁻¹ in data set [2]; 0.0014 s⁻¹ in data set [3]; 0.0353 s⁻¹ in data set [4]; 0.00285 s⁻¹ in data set [5]. Moreover, the kcat/Km was found to be 2440 M⁻¹ s⁻¹ in the data set “purified protein”; 409 M⁻¹ s⁻¹ in data set [1]; 222 M⁻¹ s⁻¹ in data set [2]; 1070 M⁻¹ s⁻¹ in data set [3]; 2630 M⁻¹ s⁻¹ in data set [4]; 83.4 M⁻¹ s⁻¹ in data set [5].

Broadly, the Km is the substrate concentration at which the rate is half of its maximum. What is called Vmax is the rate approached at saturating substrate. For orientation: kcat means the number of substrate molecules converted per active site and unit of time at saturation. Broadly, the kcat/Km is the turnover number divided by the Michaelis constant.

These data come from publication PMC7583084, “Biochemical Characterization of a Flavonoid O-methyltransferase from Perilla Leaves and Its Application in 7-Methoxyflavonoid Production” (Molecules, 2020).
